The record followed here is US20130089544A1 (AstraZeneca / MedImmune, published 2013).

The target in experiment [1] is T1, human ErbB2, full length, on cells (human, UniProt P04626 23-1255). Nature of the experiment: cell-based or functional assay.
The target of experiment [2] is T1, human ErbB2, full length, on cells. Nature of the experiment: cell-based or functional assay. This is another data set of the same source.
Experiment [3] concerns the target T2, human ErbB2 ECD-myc/His fusion protein (human, UniProt P04626 23-652).
T2 construct: Made in-house in 293T cells; also called hErbB2(ECD)/cMyc-His; huErbB2 (ECD)/c-myc-His; not shown: c-myc/His tag of the pSecTag2Hygro vector
As to the kind of experiment: SPR, Biacore 2000 medium resolution; mAb captured on goat anti-human IgG, ErbB2(ECD)-cMyc/His injected; 1:1 fit. On the procedure: The binding affinity of eight of the anti-ErbB2 antibodies was measured by medium resolution Biacore. All experiments were performed using a Biacore 2000 instrument.
First, 12 high-density goat α-human IgG antibody surfaces over three CM5 Biacore chips were prepared using routine amine coupling. […] Before each antigen injection cycle, each mAb was captured for six to nine seconds at a 100 μL/min flow rate. A 2-minute wash step followed each capture injection to stabilize each mAb baseline. […] All samples were randomly injected with several mAb capture/buffer inject cycles interspersed for double referencing. […] A flow rate of 100 μL/min. was used for all injection cycles. The data was fit to a 1:1 interaction model using CLAMP.

Experiment [4] addresses T1, human ErbB2, full length, on cells. As to the kind of experiment: cell-based or functional assay. The source holds these as a separate data set.
The target is the same in experiment [5]. Nature of the experiment: cell-based or functional assay. The source holds these as a separate data set.
Experiment [6] shares this target. Nature of the experiment: cell-based or functional assay. The source holds these as a separate data set.
Experiment [7] shares this target. Nature of the experiment: cell-based or functional assay. This is another data set of the same source.
For experiment [8], the target named is T2, human ErbB2 ECD-myc/His fusion protein. As to the kind of experiment: SPR, Biacore T100 high resolution; mAb captured on goat anti-human IgG, hHer-2(ECD)cMyc injected; 1:1 fit. On the procedure: All experiments were performed using a Biacore T100 instrument. First, a high-density goat α human IgG antibody (Caltag H10500) surface was prepared over two CM5 Biacore chips using routine amine coupling. Each mAb was diluted in HBS-P running buffer containing 100 μg/ml Bovine serum albumin (BSA).
A capture level protocol was developed for all five mAbs. Before each antigen injection cycle, each mAb was captured for 15 to 30 seconds at a 20 μL/min flow rate. A 5-minute wash step followed each capture injection to stabilize each mAb baseline. […] The samples were prepared in the running buffer described above. All samples were randomly injected with several mAb capture/buffer inject cycles interspersed for double referencing. […] A flow rate of 50 μL/min. was used for all injection cycles.
All sensorgram data were fit to a 1:1 interaction model using CLAMP.
Background: SPR reads the build-up and loss of mass on a sensor chip optically.

For experiment [9] the target is unchanged. As to the kind of experiment: limited antigen ELISA, 31 ng/ml ErbB2 ECD-myc/His coated, supernatant 1:25. The method, then: […] […] Antigen-coated plates were washed three times, blocked with 1% non-fat skim milk/PBS for at least 30 minutes at room temperature, and then washed again three times. Each hybridoma line sample was titrated in 1% non-fat skim-milk/PBS 1:3 for 7 points starting from a 1:25 dilution. […] The next day, plates were washed three times and incubated with 50 μl of 400 ng/ml immunopure Goat anti-human IgG (Fc)-HRP (Pierce catalog #31416) for 1 hour at room temperature. Then, the plates were extensively washed and pat dried on paper towel to remove residual HRP in wells. HRP substrate TMB (enhanced K-blue TMB, Neogen catalog #308177) was added to each well and incubated for 30 min. The reaction was stopped by addition of 1N HCl. Optical density at 450 nm was read on a microplate reader (Titerteck Multiskan Ascent).
For orientation: ELISA stands for enzyme-linked immunosorbent assay.

The Kd is the free concentration of one partner at which half of the binding sites on the other are occupied at equilibrium, for simple one-to-one binding. As usually defined, the koff is the rate constant with which the complex falls apart. Lower therefore signals a long-lived complex. In general, kon refers to a measure of how fast the partners come together. A high value points to faster complex formation.

B1: monoclonal antibody 1.20 (antibody, V domains shown)
VH: EVQLVESGGGLVKPGGSLRLSCAASGFTFSSYTMNWVRQAPGKGLEWVSSISSSSSYIYYADSVKGRFTISRDNAKNSLYLQMNSLSAEDTAVYSCARGGDGYNYYYFDYWGQGTLVTVSS
VL: DIVMTQSPGSLVVSLGERATITCKSSQSVFFRSNNKNCLAWYQQRPGQSPNLLIYWASTRESGVPDRFSGSGSGTDFTLTISSLQAEDVAVYYCQQYFGSPFTFGPGTKVDIK
notes: Fully human IgG (gamma/kappa) from a XenoMouse XM3B-3 hybridoma; constant regions not tied to it; also called 1.20.1; 1.19
B1: in experiment [1], the “1 hr pTyr inhibition % (Heregulin-induced ErbB2 phosphorylation in MCF7 cells, hybridoma supernatant)” value turned out to be 91% and the “24 hr pTyr inhibition % (Heregulin-induced ErbB2 phosphorylation in MCF7 cells, hybridoma supernatant)” value worked out at 96%. In experiment [2], the “% inhibition @36 µg/ml, SKBR3 cell proliferation” value (shortened to “% inhibition @36 µg/ml”) came out at 49% and the “EC50 (ng/ml), inhibition of SKBR3 cell proliferation” value turned out to be 25.2 ng/mL. In experiment [3], this molecule displayed a Kd of 3.6 nM, a koff of 0.000344 s⁻¹ and a kon of 95000 M⁻¹ s⁻¹. Further, in experiment [4], the “% Inhibition @10 µg/ml (n1), ErbB2 phosphorylation in BT474 cells at 48 hours” value (“% Inhibition @10 µg/ml (n1)” for short) came out at 21% and the “% Inhibition @10 µg/ml (n2), ErbB2 phosphorylation in BT474 cells at 48 hours” value (“% Inhibition @10 µg/ml (n2)” below) worked out at 28%. Besides, in experiment [5], the “% Inhibition @10 µg/ml, Heregulin-induced MCF7 cell proliferation” value is 100% and the “EC50 (ng/ml), inhibition of Heregulin-induced MCF7 cell proliferation” value came to 770 ng/mL. Also, in experiment [6], the “EC50 (ng/ml) n1, inhibition of Heregulin-induced ErbB2 phosphorylation in MCF7 cells” value (shortened to “EC50 (ng/ml) n1, inhibition”) was found to be 15.5 ng/mL and the “EC50 (ng/ml) n2, inhibition of Heregulin-induced ErbB2 phosphorylation in MCF7 cells” value (“EC50 (ng/ml) n2, inhibition” for short) was 17.4 ng/mL. Besides, in experiment [7], the “N1 % Inhibition @40 µg/ml, BT474 cell proliferation” value (from here on “N1 % Inhibition @40 µg/ml”) was found to be 40%; the “N1 EC50 (ng/ml), inhibition of BT474 cell proliferation” value (shortened to “N1 EC50 (ng/ml), inhibition”) was found to be 85.3 ng/mL; the “N2 % Inhibition @40 µg/ml, BT474 cell proliferation” value (“N2 % Inhibition @40 µg/ml” below) was found to be 37%; the “N2 EC50 (ng/ml), inhibition of BT474 cell proliferation” value (from here on “N2 EC50 (ng/ml), inhibition”) is 12.8 ng/mL.

B2: monoclonal antibody 1.140 (antibody, V domains shown)
VH: EVQLVESGGGLVKPGGSLRLSCAASGFTFSSYSMNWVRQAPRKGLEWVSSISSSSSYIYYADSVKGRFTISRDNAKNSLYLQMNSLRAEDTAVYYCARGGDGYNYYYFDYWGQGTLVTVSS
VL: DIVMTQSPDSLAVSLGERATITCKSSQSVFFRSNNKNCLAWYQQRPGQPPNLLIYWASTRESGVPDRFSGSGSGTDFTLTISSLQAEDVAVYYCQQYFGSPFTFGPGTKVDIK
notes: Fully human IgG (gamma/kappa) from a XenoMouse XM3B-3 hybridoma; constant regions not tied to it; also called 1.124
On to B2, for which, in experiment [2], the “% inhibition @36 µg/ml” value is 44% and the “EC50 (ng/ml), inhibition of SKBR3 cell proliferation” value is 42.7 ng/mL. For the same molecule, in [3], the dissociation constant (Kd) came out at 3.5 nM, the koff is 0.000333 s⁻¹ and the kon was determined as 94000 M⁻¹ s⁻¹. Also, in [4], the “% Inhibition @10 µg/ml (n1)” value was found to be 31% and the “% Inhibition @10 µg/ml (n2)” value is 33%. In experiment [8], this molecule gave a Kd of 10.6 nM, a koff of 0.000173 s⁻¹ and a kon of 16400 M⁻¹ s⁻¹. Moreover, in experiment [5], the “% Inhibition @10 µg/ml, Heregulin-induced MCF7 cell proliferation” value was determined as 91% and the “EC50 (ng/ml), inhibition of Heregulin-induced MCF7 cell proliferation” value stood at 633 ng/mL. Also, in experiment [6], the “EC50 (ng/ml) n1, inhibition” value was 14.7 ng/mL and the “EC50 (ng/ml) n2, inhibition” value stood at 22.9 ng/mL. In experiment [7], the “N1 % Inhibition @40 µg/ml” value stood at 39%; the “N1 EC50 (ng/ml), inhibition” value amounted to 300 ng/mL; the “N2 % Inhibition @40 µg/ml” value was determined as 45%; the “N2 EC50 (ng/ml), inhibition” value amounted to 70.9 ng/mL.

B3: monoclonal antibody 1.24 (antibody, V domains shown)
VH: EVQLVESGGGLVKPGGSLRLSCAASGFTFSSYSMNWVRQAPGKGLEWVSSISSSSSYIYYADSVKGRFTISRDNAKNSLYLQMNSLRAEDTAVYYCARGGDGYNYYYFDYWGQGTLVTVSS
VL: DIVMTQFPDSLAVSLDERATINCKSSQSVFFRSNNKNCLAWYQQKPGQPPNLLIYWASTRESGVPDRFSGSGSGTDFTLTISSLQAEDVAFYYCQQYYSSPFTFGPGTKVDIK
notes: Fully human IgG (gamma/kappa) from a XenoMouse XM3B-3 hybridoma; constant regions not tied to it; also called 1.24.3
In the case of B3, in experiment [1], the “1 hr pTyr inhibition % (Heregulin-induced ErbB2 phosphorylation in MCF7 cells, hybridoma supernatant)” value came out at 77% and the “24 hr pTyr inhibition % (Heregulin-induced ErbB2 phosphorylation in MCF7 cells, hybridoma supernatant)” value was determined as 99%. In experiment [2], the “% inhibition @36 µg/ml” value was 37% and the “EC50 (ng/ml), inhibition of SKBR3 cell proliferation” value came to 48.5 ng/mL. In experiment [3], this molecule displayed a Kd of 5.1 nM, a koff of 0.000655 s⁻¹ and a kon of 128000 M⁻¹ s⁻¹. For the same molecule, in [5], the “% Inhibition @10 µg/ml, Heregulin-induced MCF7 cell proliferation” value stood at 81% and the “EC50 (ng/ml), inhibition of Heregulin-induced MCF7 cell proliferation” value amounted to 3020 ng/mL. In experiment [6], the “EC50 (ng/ml) n1, inhibition” value was 42.9 ng/mL and the “EC50 (ng/ml) n2, inhibition” value was 20.4 ng/mL. In [7], the “N1 % Inhibition @40 µg/ml” value was determined as 24%; the “N1 EC50 (ng/ml), inhibition” value stood at 198 ng/mL; the “N2 % Inhibition @40 µg/ml” value is 29%; the “N2 EC50 (ng/ml), inhibition” value came to 74.4 ng/mL. The “LA at 31 ng/ml (OD)” value in experiment [9] is 2.35 OD 450 nm.

B4: monoclonal antibody 1.96 (antibody, V domains shown)
VH: EVQLVESGGGLVKPGGSLRLSCAASGFTFSSYSMNWVRQAPGKGLEWVSSISSSSSYIYYADSVKGRFTISRDNAKNSLYLQMNSLRAEDTAVYYCARGGDGYNYYYFDYWGQGTLVTVSS
VL: DIVMTQSPDSLAVSLGERATITCKSSQSVFFRSNNKNCLAWYQQRPGQPPNLLFYWASTRESGVPDRFSGSGSGTDFTLTISSLQAEDVAVYYCQQYFGSPFTLGPGTKVDIK
notes: Fully human IgG (gamma/kappa) from a XenoMouse XM3B-3 hybridoma; constant regions not tied to it
On to B4, for which, in [2], the “% inhibition @36 µg/ml” value stood at 43% and the “EC50 (ng/ml), inhibition of SKBR3 cell proliferation” value came to 41.7 ng/mL. Moreover, in [3], the Kd was determined as 2.6 nM, the koff was 0.000273 s⁻¹ and the kon was 103000 M⁻¹ s⁻¹. Further, in experiment [4], the “% Inhibition @10 µg/ml (n1)” value came out at 37% and the “% Inhibition @10 µg/ml (n2)” value is 30%. In experiment [8], this molecule displayed a Kd of 11.6 nM, a koff of 0.000194 s⁻¹ and a kon of 16800 M⁻¹ s⁻¹. In experiment [5], the “% Inhibition @10 µg/ml, Heregulin-induced MCF7 cell proliferation” value was 98% and the “EC50 (ng/ml), inhibition of Heregulin-induced MCF7 cell proliferation” value amounted to 2830 ng/mL. For the same molecule, in experiment [6], the “EC50 (ng/ml) n1, inhibition” value was 28.8 ng/mL and the “EC50 (ng/ml) n2, inhibition” value turned out to be 34 ng/mL. Also, in experiment [7], the “N1 % Inhibition @40 µg/ml” value came to 35%; the “N1 EC50 (ng/ml), inhibition” value is 131 ng/mL; the “N2 % Inhibition @40 µg/ml” value was found to be 29%; the “N2 EC50 (ng/ml), inhibition” value was 66.3 ng/mL.

B5: monoclonal antibody 1.71.3 (antibody, V domains shown)
VH: EVQLVESGGGLVQPGGSLRLSCTASGFPFSSYDMHWVRQATGKGLEWVSAIGTAGDTFYPGSVKGRFTISRENAKNSLYLQMNSLRAGDTAVYYCAREGYSSGRYFYYGMDVWGQGTTVTVSS
VL: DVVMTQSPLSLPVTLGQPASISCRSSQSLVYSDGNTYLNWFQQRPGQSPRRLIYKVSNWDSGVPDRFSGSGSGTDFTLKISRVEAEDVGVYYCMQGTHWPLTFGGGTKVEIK
Regarding B5, in [5], the “EC50 (ng/ml), inhibition of Heregulin-induced MCF7 cell proliferation” value is over 10000 ng/mL. For the same molecule, the “EC50 (ng/ml) n1, inhibition” value in [6] is over 10000 ng/mL.

B6: monoclonal antibody 1.43 (antibody, V domains shown)
VH: EVQLVESGGGLVQPGGSLRLSCAASGFTFSSYWMHWVRQTPGKGLEWVANIKQDGSEKYYVDSVKGRFTISRDNAKNSLHLQMNSLRAEDTAAYYCASFRDYGMDVWGQGTTVTVSS
VL: DIQMTQSPSSLSASVGDRVTITCRASQGISNHLAWFQQKPGKAPKSLIYGASSLQTGVPSKFSGSGSGTDFTLTISSLQPEDFASYFCQQYKGYPITFGQGTRLEIK
On to B6, for which, in experiment [5], the “% Inhibition @10 µg/ml, Heregulin-induced MCF7 cell proliferation” value stood at 53% and the “EC50 (ng/ml), inhibition of Heregulin-induced MCF7 cell proliferation” value was about 10000 ng/mL. Further, in experiment [6], the “EC50 (ng/ml) n1, inhibition” value is over 10000 ng/mL and the “EC50 (ng/ml) n2, inhibition” value is over 10000 ng/mL.
